Results: patent US20240392020A1 (JIANGSU HENGRUI PHARMACEUTICALS, published 2024)
Substitutions are numbered along the chain they refer to. Each block holds one binder with its values, some of them ahead of it.

Assays:
hIL-5 = target: T1, hIL-5 (human, UniProt P05113 20-134); assay: ELISA
T1 construct: bought
Description: For an antibody targeting a soluble protein, the binding activity of the antibody against the soluble protein was detected by ELISA. […] After the blocking was completed, the blocking solution was discarded; and the plate was washed 3 times with a PBST buffer (pH 7.4, PBS containing 0.1% tween-20). 100 μL of the antibody solution diluted in a gradient was added to each well, and the mixture was incubated at 37° C. for 1 h. After the incubation was completed, the plate was washed 3 times with PBST. […] The plate was washed 3 times with PBST. […] The reaction was stopped by adding 50 μL of 1 M H₂SO₄ to each well. The absorbance values at 450 nm were read on a microplate reader, the binding curves of the antibodies to an antigen were fitted with software, and the EC₅₀ values were calculated.

[1] = target: T2, B7H3 on the recombinant cell line CT26-B7H3 (UniProt Q5ZPR3 29-534, limits assumed); assay: FACS, CT26-B7H3 cells
T2 construct: whole, on cells
T2 sequence (looked up): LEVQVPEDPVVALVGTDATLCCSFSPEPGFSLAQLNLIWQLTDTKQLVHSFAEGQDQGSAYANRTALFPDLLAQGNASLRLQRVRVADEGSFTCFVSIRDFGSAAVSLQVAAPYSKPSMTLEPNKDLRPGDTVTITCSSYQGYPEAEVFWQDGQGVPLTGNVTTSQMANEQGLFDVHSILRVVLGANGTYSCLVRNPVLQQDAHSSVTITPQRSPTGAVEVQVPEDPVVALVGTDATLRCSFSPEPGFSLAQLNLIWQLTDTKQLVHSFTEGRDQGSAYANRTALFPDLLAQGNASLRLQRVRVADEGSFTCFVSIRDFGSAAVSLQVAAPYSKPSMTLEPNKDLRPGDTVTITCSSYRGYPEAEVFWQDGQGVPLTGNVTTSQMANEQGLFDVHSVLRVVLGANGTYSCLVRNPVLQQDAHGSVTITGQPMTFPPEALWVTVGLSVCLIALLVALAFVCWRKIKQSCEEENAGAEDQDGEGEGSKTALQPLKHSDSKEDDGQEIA

CEA on MKN45 cells = target: T3, CEA on MKN45 cells (UniProt P06731 35-685); assay: FACS, MKN45 cells
T3 construct: whole, on cells
T3 sequence (looked up): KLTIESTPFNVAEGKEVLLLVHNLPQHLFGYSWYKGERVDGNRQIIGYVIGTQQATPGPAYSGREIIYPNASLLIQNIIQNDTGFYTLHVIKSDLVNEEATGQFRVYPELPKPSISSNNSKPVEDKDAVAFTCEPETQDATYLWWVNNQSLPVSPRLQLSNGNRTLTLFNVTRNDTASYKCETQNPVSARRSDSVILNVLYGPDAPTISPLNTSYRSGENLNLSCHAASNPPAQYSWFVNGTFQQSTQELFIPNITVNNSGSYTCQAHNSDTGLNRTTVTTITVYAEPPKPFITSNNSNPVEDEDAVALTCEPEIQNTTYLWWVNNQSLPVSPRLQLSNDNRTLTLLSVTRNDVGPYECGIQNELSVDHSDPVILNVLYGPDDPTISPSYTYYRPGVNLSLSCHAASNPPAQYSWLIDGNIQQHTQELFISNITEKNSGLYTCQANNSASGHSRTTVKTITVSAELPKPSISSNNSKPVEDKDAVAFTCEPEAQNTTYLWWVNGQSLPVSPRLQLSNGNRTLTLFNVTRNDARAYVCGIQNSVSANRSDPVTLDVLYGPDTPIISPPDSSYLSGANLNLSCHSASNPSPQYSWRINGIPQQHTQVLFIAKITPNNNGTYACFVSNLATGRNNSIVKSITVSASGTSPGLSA

B1: H5 (antibody)
heavy: not shown
light: DIQMTQSPSSVSASVGDRVTITCRASQDIANYLSWYQQKPGKSPKLLIYGTSNLEVGVPSRFSGSRSGTDFTLTISSLQPEDFATYYCLQDKEFPRTFGGGTKVEIKSGAPRFLTRPKAFVVSVGKDATLSCQIVGNPTPQVSWEKDQQPVAAGARFRLAQDGDLYRLTILDLALGDSGQYVCRARNAIGEAFACVGLQVDAEA
EC50 (hIL-5): 3.4 nM

B2: H7 (antibody)
heavy: not shown
light: B1 light with R116C, C195A
EC50 (hIL-5): 2.7 nM

B3: H8 (antibody)
heavy: not shown
light: B1 light with C132S, C183S
EC50 (hIL-5): 2.11 nM

B4: H6 (antibody)
heavy: not shown
light: B1 light with A110C, C195A
EC50 (hIL-5): 2.1 nM

B5: H9 (antibody)
heavy: not shown
light: B1 light with A110C, C132S, C183S, C195A
EC50 (hIL-5): 2.92 nM

B6: H10 (antibody)
heavy: not shown
light: B1 light with R116C, C132S, C183S, C195A
EC50 (hIL-5): 2.86 nM

B7: H11 (antibody)
heavy: not shown
light: DIQMTQSPSSVSASVGDRVTITCRASQDIANYLSWYQQKPGKSPKLLIYGTSNLEVGVPSRFSGSRSGTDFTLTISSLQPEDFATYYCLQDKEFPRTFGGGTKVEIKQGSPPEFLRFPRPVRVVSGAEAELKCVVLGEPPPVVVWEKGGQQLAASERLSFPADGAEHGLLLTAALPTDAGCYVCRARNAAGEAYAAAAVTVLEPP
EC50 (hIL-5): 3.38 nM

B8: H13 (antibody)
heavy: not shown
light: B7 light with C181V, A193C
EC50 (hIL-5): 3.56 nM

B9: H12 (antibody)
heavy: not shown
light: B7 light with C181V, G191C
EC50 (hIL-5): 4.34 nM

B11: H14 (antibody)
heavy: not shown
light: B7 light with C133S, C184S
EC50 (hIL-5): 2.61 nM

B13: F16 (antibody)
heavy: not shown
light: DTVVTQEPSFSVSPGGTVTLTCGLSSGSVSTSHYPSWYQQTPGQAPRMLIYNTNTRSSGVPDRFSGSILGNKAALTITGAQADDESDYYCAIHVDRDIWVFGGGTKLTVLSGAPRFLTRPKAFVVSVGKDATLSSQIVGNPTPQVSWEKDQQPVAAGARFRLAQDGDLYRLTILDLALGDSGQYVSRARNAIGEAFACVGLQVDAEA
EC50 [1]: 2 nM

B22: N11 (antibody)
heavy: not shown
light: EIVLTQSPGTLSLSPGERATLSCRASQNINNRFLAWYQQRPGQAPRLLIYAASSRATGVPDRFSGSGSGTDFTLTISRLEAEDFAMYHCQQYGSFPRTFGQGTMVDIKSGAPRFKTRPKAFVVSVGKDATLSSQIVGNPTPQVSWEKDQQPVAAGARFRLAQDGDLYRLKILDLALGDSGQYVSRARNAIGEAFACVGLQVDAEA
EC50 (CEA on MKN45 cells): 5 nM

B23: N12 (antibody)
heavy: not shown
light: B22 light with K170H
EC50 (CEA on MKN45 cells): 5.3 nM

B24: R7 (antibody)
heavy: not shown
light: DIQMTQSPSSLSASVGDRVTITCLASEGISSYLAWYQQKPGKAPKLLIYGANSLQTGVPSRFSGSGSATDYTLTISSLQPEDFATYYCQQSYKFPNTFGQGTKVEVKSGAPRFLTRPKAFVVSVGKDATLSCQIVGNPTPQVSWEKDQQPVAAGARFRLAQDGDLYRLTILDLALGDSGQYVCRARNAIGEAFACVGLQVDAEA
EC50 (hIL-5): 4.89 nM

B25: R9 (antibody)
heavy: not shown
light: B24 light with R116C, C195A
EC50 (hIL-5): 3.95 nM

B26: R8 (antibody)
heavy: not shown
light: B24 light with A110C, C195A
EC50 (hIL-5): 3.84 nM

B27: R12 (antibody)
heavy: not shown
light: B24 light with R116C, C132S, C183S, C195A
EC50 (hIL-5): 4.36 nM

B28: R11 (antibody)
heavy: not shown
light: B24 light with A110C, C132S, C183S, C195A
EC50 (hIL-5): 3.3 nM

B29: F24 (antibody)
heavy: not shown
light: DTVVTQEPSFSVSPGGTVTLTCGLSSGSVSTSHYPSWYQQTPGQAPRMLIYNTNTRSSGVPDRFSGSILGNKAALTITGAQADDESDYYCAIHVDRDIWVFGGGTKLTVLDQPQFSGAPRFKTRPKAFVVSVGKDATLSSQIVGNPTPQVSWEKDQQPVAAGARFRLAQDGDLYRLKILDLALGDSGQYVSRARNAIGEAFACVGLQVDAEA
EC50 [1]: 2.4 nM

B31: F25 (antibody)
heavy: not shown
light: B29 light
EC50 [1]: 2.6 nM

Continued, values first:

EC50 (hIL-5): 4.26 nM
B10: H15 (antibody)
heavy: not shown
light: B7 light with C133S, C181V, C184S, A193C

EC50 [1]: 3.9 nM
B12: F18 (antibody)
heavy: not shown
light: B13 light with L117K, T172H

EC50 [1]: 3.4 nM
B14: F21 (antibody)
heavy: not shown
light: B13 light with K121L, T172K

EC50 [1]: 4.1 nM
B15: F23 (antibody)
heavy: not shown
light: B13 light with K121L, T172H

EC50 [1]: 2.4 nM
B16: F22 (antibody)
heavy: not shown
light: B13 light with K121L, T172H

EC50 [1]: 1.9 nM
B17: F20 (antibody)
heavy: not shown
light: B13 light with K121L, T172K

EC50 [1]: 4.8 nM
B18: F17 (antibody)
heavy: not shown
light: B13 light with L117K, T172K

EC50 [1]: 2.2 nM
B19: F19 (antibody)
heavy: not shown
light: B13 light with L117K, T172H

EC50 [1]: 3.69 nM
B20: F32 (antibody)
heavy: not shown
light: DTVVTQEPSFSVSPGGTVTLTCGLSSGSVSTSHYPSWYQQTPGQAPRMLIYNTNTRSSGVPDRFSGSILGNKAALTITGAQADDESDYYCAIHVDRDIWVFGGGTKLTVLGGGGSGGGGSSGAPRFLTRPKAFVVSVGKDATLSSQIVGNPTPQVSWEKDQQPVAAGARFRLAQDGDLYRLTILDLALGDSGQYVSRARNAIGEAFACVGLQVDAEA

EC50 [1]: 2.38 nM
B21: F34 (antibody)
heavy: not shown
light: B20 light

EC50 [1]: 1.92 nM
B30: F33 (antibody)
heavy: not shown
light: B29 light with D111G, Q112G, P113G, Q114G, F115S, K122L, K177T

EC50 [1]: 3.6 nM
B32: F29 (antibody)
heavy: not shown
light: B29 light with K122R

EC50 [1]: 1.2 nM
B33: F27 (antibody)
heavy: not shown
light: B29 light with K177H

EC50 [1]: 2.6 nM
B34: F26 (antibody)
heavy: not shown
light: B29 light with K177H

EC50 [1]: 2.4 nM
B35: F28 (antibody)
heavy: not shown
light: B29 light with K122R

EC50 [1]: 3.4 nM
B36: F30 (antibody)
heavy: not shown
light: B29 light with K122R, K177H

EC50 [1]: 2.4 nM
B37: F31 (antibody)
heavy: not shown
light: B29 light with K122R, K177H
